Earlier results as cited in paper PMC6321638.

Target: ALG-2 (Homo sapiens) (UniProt O75340)
Experiment: SPR

Chain of ALG-2 (Homo sapiens) (O75340 2-191): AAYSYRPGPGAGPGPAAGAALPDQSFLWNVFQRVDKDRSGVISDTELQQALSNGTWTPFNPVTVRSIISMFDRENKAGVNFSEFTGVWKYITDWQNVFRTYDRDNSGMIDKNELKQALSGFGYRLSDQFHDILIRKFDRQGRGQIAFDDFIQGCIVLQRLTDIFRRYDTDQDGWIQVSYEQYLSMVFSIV

For ALIX peptide, the Kd is listed as 200 nM.
